As usually defined, the Km is the concentration of substrate that gives half-maximal velocity.

The results in this text go back to patent publication EP2433948A1, “Use of a new class of nucleotide sugar as antibiotic or cytostatic agent” (Max-Planck-Gesellschaft zur Förderung der Wissenschaften …, priority 2010, dated 2012).

Substrate in the data set: CC(=O)N[C@H]1[C@@H](OP(=O)(O)OP(=O)(O)OC[C@H]2O[C@@H](n3ccc(=O)[nH]c3=O)[C@H](O)[C@@H]2O)O[C@H](CO)[C@@H](O)[C@@H]1O
Nature of the data set: MurA activity/inhibition assay (phosphate release coupled to PNPase cleavage of fluorescent 7-methylguanosine). Type of data set: biochemical, E. coli. The settings on record: other: 0.5 µM MurA, 1 mM phosphoenolpyruvate; best fit parameter of global fit; same as reported in literature; pH 7.5. An excerpt:
• (a) MurA performs the first step of UDP-muramic acid biosynthesis. After sequential binding of UNAG and phosphoenolpyruvate, a tetrahedral intermediate is formed that yields enolpyruvyl-UNAG after cleavage of inorganic phosphate. UNAG-3P most likely mimics this tetrahedral intermediate and thereby inhibits MurA catalysis by a competitive binding mechanism. (b) Determination of the Ki of UNAG-3P for MurA. Enolpyruvyl-UNAG formation catalyzed by MurA from E. coli in presence of PEP and UNAG-3P and varying UNAG concentrations under steady state conditions. MurA enzyme kinetics were followed by coupling the reaction to phosphate dependent cleavage of fluorescent 7-methylguanosine by nucleoside phosphorylase resulting in a strong decrease of the fluorescence at 400 nm (λexc = 300 nm). The UNAG-3P concentrations for each saturation curve were 0 µM (●), 15 µM (□) and 30 µM (Δ). A Lineweaver-Burk plot is shown as inset.
The enolpyruvyl activity of E. coli MurA was monitored by coupling phosphate release to cleavage of fluorescent 7-methylguanosine (Sigma) by bacterial purine-nucleoside phosphorylase (PNPase) (Sigma). […] The reactions were monitored by the decrease in fluorescence at 400 nm with excitation set to 300 nm in a FluoroMax-3 spectrofluorometer (HORIBA Jobin Yvon) with excitation and emission bandwidths of 5 nm. […]

B1: E. coli MurA (Escherichia coli K-12) (protein)
chain: MDKFRVQGPTKLQGEVTISGAKNAALPILFAALLAEEPVEIQNVPKLKDVDTSMKLLSQLGAKVERNGSVHIDARDVNVFCAPYDLVKTMRASIWALGPLVARFGQGQVSLPGGCTIGARPVDLHISGLEQLGATIKLEEGYVKASVDGRLKGAHIVMDKVSVGATVTIMCAATLAEGTTIIENAAREPEIVDTANFLITLGAKISGQGTDRIVIEGVERLGGGVYRVLPDRIETGTFLVAAAISRGKIICRNAQPDTLDAVLAKLRDAGADIEVGEDWISLDMHGKRPKAVNVRTAPHPAFPTDMQAQFTLLNLVAEGTGFITETVFENRFMHVPELSRMGAHAEIESNTVICHGVEKLSGAQVMATDLRASASLVLAGCIAEGTTVVDRIYHIDRGYERIEDKLRALGANIERVKGE
On to B1, for which the Km stood at 15 µM.
